We go through one molecule from patent US20240109859.

The target of this data set is T1, IRF3 wild-type (UniProt Q14653 Q14653:1-427).
T1 sequence: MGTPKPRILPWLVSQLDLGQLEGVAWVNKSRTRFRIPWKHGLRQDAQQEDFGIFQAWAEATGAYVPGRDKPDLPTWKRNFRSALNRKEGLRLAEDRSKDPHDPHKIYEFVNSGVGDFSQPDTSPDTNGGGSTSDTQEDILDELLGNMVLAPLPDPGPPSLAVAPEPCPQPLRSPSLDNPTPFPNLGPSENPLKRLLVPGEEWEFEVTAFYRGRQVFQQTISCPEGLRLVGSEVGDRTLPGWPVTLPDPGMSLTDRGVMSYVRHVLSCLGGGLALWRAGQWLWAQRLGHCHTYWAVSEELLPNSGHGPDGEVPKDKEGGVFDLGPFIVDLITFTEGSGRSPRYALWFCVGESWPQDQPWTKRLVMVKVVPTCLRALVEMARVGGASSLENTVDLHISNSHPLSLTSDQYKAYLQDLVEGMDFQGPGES
In words: EMSA; 2.5 nM probe, 10 mM Tris pH 7.5, 50 mM NaCl, 2 mM DTT, room temperature 45 min; cold probe competition. Particulars: tags: Flag, expressed in HEK293T; label: 32P. The protocol: Electrophoresis Mobility Shift Assay (EMSA). Flag-IRF3-WT and Flag-IRF3-N85D were purified from HEK293T cells. Binding reactions were carried out in 20 μl volumes containing: 2.5 nM P32 labeled DNA probe targeting IFN-β promoter (forward: […] (SEQ ID NO: 41); reverse: […]) (SEQ ID NO: 42); 10 mM Tris pH 7.5; 50 mM NaCl; 2 mM DTT and indicated purified Flag-IRF3-WT or Flag-IRF3-N85D. Unlabeled probe (cold probe) was used for competition assay. Reactions were incubated at room temperature for 45 min, and resolved in 6% polyacrylamide gels (29:1 crosslinking) with 0.5×TBE running buffer at […] on ice until the loading dye front reached the bottom of the gel. Gels were dried and analyzed using phosphorimaging instrumentation.
(Mobility shift assays separate free from complexed probe on a gel.)

B1: IFN-beta promoter probe (dsDNA)
DNA 1: GCACCGCTAACCGAAACCGAAACTGTGC
DNA 2: GCACAGTTTCGGTTTCGGTTAGCGGTGC
As for B1, the binding result is “binds”.
